Measured values taken from the supplement of paper PMC9732359.
± gives the uncertainty stated by the source.

Test: protein stability index of a GFP-peptide fusion (yeast GPS) (PSI 1-4); higher = more stable; sorted into four equal gates, so the index is relative within each strain
How it was run: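 Yeast carrying a pooled library were grown to mid-log phase in leucine-free medium. Each library plasmid expresses Cherry and has a tiled 17-residue yeast protein peptide fused downstream of GFP. Cells were sorted into four equal gates by GFP/Cherry ratio, and plasmids from each gate were PCR-amplified, Illumina-sequenced and assigned to strains by barcode. Summing, across gates, the read frequency times the gate number gave each peptide's protein stability index.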

Sequence | protein stability index (doa10∆) | protein stability index (pdr5∆) | protein stability index (san1∆) | protein stability index (ubr1∆)
IQIFRAHLWQKIHESIV [PRP8] | 2.4 ± 0.098 | 2.52 ± 0.09 | 2.59 ± 0.073 | 2.47 ± 0.074
VLGIKVKIMRDPAKSRT [RPS3] | 2.67 ± 0.067 | 2.78 ± 0.054 | 2.98 ± 0.049 | 3.16 ± 0.037
NWRRLSGRNIHLAVVCV [SSN2] | 2.12 ± 0.085 | 1.58 ± 0.044 | 1.55 ± 0.078 | 2.86 ± 0.045
YPVHEAHKGQIVLIKGI [SNU114] | 1.52 ± 0.095 | 2.45 ± 0.088 | 1.37 ± 0.15 | 2.87 ± 0.088
QQQLYGGNNNNNSTGIA [SWI1] | 3.12 ± 0.076 | 3.15 ± 0.066 | 3.25 ± 0.053 | 3.11 ± 0.045
SLLLTNVIITGSTSLIE [ARP7] | 1.54 ± 0.033 | 1.6 ± 0.034 | 1.66 ± 0.051 | 1.39 ± 0.028
SYTFRSEKGLLSATQFT [FAS1] | 2.67 ± 0.052 | 2.65 ± 0.046 | 2.84 ± 0.045 | 2.78 ± 0.036
EIFQLFTNPSVDIQIIN [SWI1] | 2.69 ± 0.081 | 2.88 ± 0.09 | 2.55 ± 0.078 | 2.54 ± 0.064
VSQMVAVVGQQIISGNR [RPO31] | 3.2 ± 0.14 | 3.14 ± 0.15 | 3 ± 0.094 | 2.68 ± 0.13
VPSYIHVEKERASTELS [YIL149C/MLP2] | 2.33 ± 0.1 | 2.46 ± 0.069 | 2.76 ± 0.084 | 2.77 ± 0.054
PSIPLVIIRRLKTRDWI [POP1] | 2.72 ± 0.1 | 1.69 ± 0.073 | 2.86 ± 0.12 | 2.53 ± 0.081
PEPSHIDQVMMSVSDND [RET1] | 2.43 ± 0.047 | 2.06 ± 0.045 | 2.43 ± 0.05 | 2.48 ± 0.042
STSVGWKYEDVVAKLED [RPL16B] | 3.31 ± 0.073 | 2.28 ± 0.094 | 2.48 ± 0.11 | 3.33 ± 0.075
SMVLFFVCLSCSHIFTS [RPB9] | 1.55 ± 0.073 | 1.4 ± 0.081 | 1.43 ± 0.14 | 1.67 ± 0.095
DHIAIDWEDEEKYEDED [DSN1] | 2.52 ± 0.15 | 2.86 ± 0.12 | 2.55 ± 0.09 | 2.12 ± 0.08
ITYTPVRHGRAGATTSR [RPS15] | 2.28 ± 0.11 | 2.24 ± 0.081 | 2.58 ± 0.088 | 2.92 ± 0.099
GSSRIIASDGSECIVSI [RRP42] | 3.33 ± 0.14 | 3.27 ± 0.075 | 3.11 ± 0.061 | 3.12 ± 0.15
IFKIVQSRLMSTSYHLN [MED6] | 2.25 ± 0.18 | 2.23 ± 0.13 | 1.31 ± 0.096 | 2.31 ± 0.094
VIYRGPEPSHIDQVMMS [RET1] | 3.01 ± 0.085 | 3.23 ± 0.13 | 3.19 ± 0.067 | 2.77 ± 0.088
TRSNPPFKRKMLLVDII [REC8] | 1.9 ± 0.098 | 1.98 ± 0.087 | 2.14 ± 0.16 | 2.58 ± 0.061
VCQVTKFGLLLQVSAQE [ECM29] | 2.15 ± 0.061 | 2.15 ± 0.044 | 2.62 ± 0.067 | 1.9 ± 0.04
IGIDEGSDEAYVKDARK [RPC40] | 3.48 ± 0.074 | 3.38 ± 0.076 | 3.19 ± 0.051 | 3.5 ± 0.054
QVATKYASLKLPNQIPG [YMR129W/POM152] | 1.69 ± 0.038 | 1.68 ± 0.041 | 1.67 ± 0.052 | 1.84 ± 0.029
LNAANYNIDANVIDTQR [ECM29] |  | 2.37 ± 0.15 | 3.18 ± 0.12 | 2.85 ± 0.12
VYNNSKDEYLAQLDGRI [NSL1] | 3.33 ± 0.073 | 3.26 ± 0.049 | 3.17 ± 0.049 | 3.36 ± 0.045
SDSETNHKSKDNNNGDD [SKP1] | 2.9 ± 0.054 | 3.17 ± 0.051 | 3.11 ± 0.04 | 3.15 ± 0.045
VQSQVDSSSVSEDSAVF [FAS1] | 3.11 ± 0.072 | 3.33 ± 0.08 | 3.12 ± 0.047 | 3.29 ± 0.049

Sequence | protein stability index (doa10∆) | protein stability index (pdr5∆) | protein stability index (san1∆) | protein stability index (ubr1∆)
TPVQPDLSVTPQKSSSK [YAR002W/NUP60] | 3.15 ± 0.04 | 3.15 ± 0.04 | 3.057 ± 0.026 | 3.093 ± 0.027
ARILARSERKRTKISRG [ITC1] | 2.56 ± 0.062 | 3.1 ± 0.074 | 3.07 ± 0.078 | 2.06 ± 0.046
IESALKSKLDQDSTSEN [RPN2] | 2.76 ± 0.072 | 3.04 ± 0.073 | 2.87 ± 0.076 | 2.95 ± 0.1
NSKMPTRFPPAVFYTPK [PRP8] | 2.76 ± 0.056 | 3.09 ± 0.068 | 2.94 ± 0.054 | 2.93 ± 0.061
YINGKATALANLRKSRG [RPO31] | 3 ± 0.067 | 3.13 ± 0.075 | 2.81 ± 0.064 | 3 ± 0.067
LEEKKKRPNNKTLEKLE [IRR1] | 3.55 ± 0.14 | 3.43 ± 0.1 | 3.39 ± 0.092 | 3.27 ± 0.13
EKIKKINYHQYISKAQN [SSN2] | 1.82 ± 0.055 | 2.18 ± 0.041 | 2.07 ± 0.078 | 2.15 ± 0.062
KEDKSEAIDGNGEIKGE [SNF2] | 2.23 ± 0.049 | 2.81 ± 0.083 | 2.17 ± 0.073 | 2.48 ± 0.084
DQITKMKDRLVEWNDQV [RPN9] | 3.35 ± 0.12 | 3.05 ± 0.099 | 3.43 ± 0.079 | 3.29 ± 0.079
CLSPGAFLSKVPEFFQT [SRP14] | 2.73 ± 0.098 | 2.44 ± 0.13 | 2.87 ± 0.17 | 2.6 ± 0.068
QQPHYIQRTRERKKSIG [DSN1] | 2.93 ± 0.067 | 2.85 ± 0.047 | 2.63 ± 0.048 | 2.69 ± 0.051
AVATPKAEVTQLSNGIV [COR1] | 2.77 ± 0.074 | 3.11 ± 0.066 | 3.12 ± 0.053 | 2.88 ± 0.045
NTLILRGPRNSREAVRH [RPL18A] | 2.53 ± 0.25 | 2.89 ± 0.18 |  | 
EQSNSRKRTRSEAEQID [YCG1] | 3.35 ± 0.19 | 3.4 ± 0.26 | 2.81 ± 0.1 | 
DYITEAVFKIVLQPLLP [SNU114] | 1.44 ± 0.043 | 1.31 ± 0.066 | 1.38 ± 0.089 | 1.51 ± 0.055
AEKYQERSLRQKYNLLH [SNM1] | 2.32 ± 0.057 | 2.73 ± 0.074 | 3.23 ± 0.067 | 3.12 ± 0.083
KLNVVGWFHSHPGYDCW [RRI1] | 2.59 ± 0.095 | 2.38 ± 0.099 | 2.61 ± 0.13 | 2.38 ± 0.064
LLLAAQIVSYCSNNKNS [SSN2] | 1.17 ± 0.045 | 1.42 ± 0.048 | 1.23 ± 0.083 | 1.34 ± 0.045
QRRYVIKEKVQFNATIN [ITC1] | 1.47 ± 0.04 | 1.65 ± 0.033 | 1.63 ± 0.069 | 1.68 ± 0.024
KPENKTDKVSLSQPVSA [SIR4] | 2.81 ± 0.055 | 2.68 ± 0.052 | 2.49 ± 0.063 | 2.14 ± 0.037
SDEKKDGDASKPAFSFG [YJL041W/NSP1] | 3.24 ± 0.092 | 2.64 ± 0.23 | 3.25 ± 0.056 | 3.23 ± 0.1
NAVLGLGDMAVCFNNLV [YCS4] | 2.71 ± 0.097 | 3.32 ± 0.11 | 2.61 ± 0.098 | 2.68 ± 0.093
ISVGLYDTTPLLDTNSL [SKI6] | 2.57 ± 0.074 | 2.88 ± 0.13 | 2.48 ± 0.099 | 2.51 ± 0.14
GSIFTHETTFMTAMRLM [YML031W/NDC1] | 1.88 ± 0.072 | 2.53 ± 0.083 | 2.71 ± 0.065 | 2.64 ± 0.081
EGIEKMGVRTFSQKEMA [FAS2] | 2.96 ± 0.16 | 2.73 ± 0.24 | 2.88 ± 0.071 | 2.89 ± 0.061
GSYIDKKCPFTGLVSIR [RPS11A] | 2.12 ± 0.07 | 2.06 ± 0.059 | 2.27 ± 0.081 | 2.2 ± 0.049
GAIDEALEEAKLSDNIS [YDL116W/NUP84] | 3.17 ± 0.11 | 3.25 ± 0.091 | 3.41 ± 0.07 | 3.3 ± 0.045
